Experimental findings from US20080050763A1 (INSTITUT PASTEUR, published 2008) are described below.

This assay addresses T1, IKKβ, endogenous, in Rat-1 and 5R cell extracts (rat (from the cell line Rat-1; not …, UniProt Q9QY78 1-757).
T1 construct: Endogenous protein of a cell extract; also called IKK-beta
T1 sequence (looked up): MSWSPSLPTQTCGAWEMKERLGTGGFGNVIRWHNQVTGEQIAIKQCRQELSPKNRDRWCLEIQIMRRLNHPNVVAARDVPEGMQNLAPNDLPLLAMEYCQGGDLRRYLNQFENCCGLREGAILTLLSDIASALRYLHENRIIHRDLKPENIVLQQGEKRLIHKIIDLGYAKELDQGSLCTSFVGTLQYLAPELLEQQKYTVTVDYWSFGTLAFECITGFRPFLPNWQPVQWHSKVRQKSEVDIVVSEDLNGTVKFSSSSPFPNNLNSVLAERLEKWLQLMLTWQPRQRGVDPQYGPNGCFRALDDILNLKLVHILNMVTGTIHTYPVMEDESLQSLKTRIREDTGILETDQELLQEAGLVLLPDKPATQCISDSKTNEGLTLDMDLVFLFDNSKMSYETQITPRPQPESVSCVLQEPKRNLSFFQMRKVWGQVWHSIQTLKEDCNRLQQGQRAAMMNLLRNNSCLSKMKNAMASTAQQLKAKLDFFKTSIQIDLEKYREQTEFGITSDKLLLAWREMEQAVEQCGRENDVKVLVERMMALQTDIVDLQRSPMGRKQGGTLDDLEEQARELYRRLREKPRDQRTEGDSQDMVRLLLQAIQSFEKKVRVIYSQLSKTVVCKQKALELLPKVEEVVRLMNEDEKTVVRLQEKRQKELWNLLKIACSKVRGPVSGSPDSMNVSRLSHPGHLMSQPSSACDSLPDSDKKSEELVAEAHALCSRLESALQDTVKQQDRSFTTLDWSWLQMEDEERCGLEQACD
As to the kind of experiment: glycerol gradient ultracentrifugation of cell extracts, co-migration.

Description: Fractions (160 μl) were collected using the Piston Gradient Fractionator (Biocomp, Serlabo) and their absorbance at 280 nm was measured. To calibrate the gradient, standard proteins were applied to glycerol gradient and in parallel. The reproducibility of each glycerol gradient was also checked by measuring in each fraction the enzymatic activity of an endogenous marker, NDP kinase (110 kDa).

B1: NEMO (NF-κB essential modulator), endogenous, in Rat-1 cell extracts (other, UniProt Q6TMG5 1-412, looked up)
chain: MSRHLWKNQLSEMVQPSGGPAEDQDMLGEESSLGKPAMLHLPSEQGTPETLQRCLEENQELRDAIRQSNQMLRERCEELLHFQVSQREEKEFLMCKFQEARKLVERLSLEKLDLRRQREQALEDLEHLKKCQQQMAEDKASVKAQVTSLLGELQESQSRLEAATKERQTLEGRIRAVSEQVRQLESEREVLQQQHSVQVDQLRMQNQSVEAALRMERQAASEEKRKLAQLQAAYHQLFQDYDSHIKSSKGMQLEDLRQQLQQAEEALVAKQELIDKLKEEAEQHKIVMETVPVLKAQADIYKADFQAERHAREKLVERKELLQEQLEQLQREFNKLKVGCHESARIEDMRKRHVETSQPPLLPAPAHHSFHLALSNQRRSPPEEPPDFCCPKCQYQAPDMDTLQIHVMECIE
notes: Endogenous protein of a cell extract; also called IKK gamma
B1: the binding result is “binds”.
